{
  "source": "patent US9360486B2",
  "about": "“Allergen fragments” (Biomay AG, priority 2007, dated 2016)",
  "key": {"[1]": {"tested_on": "IgE of sera from ragweed pollen allergic patients", "assay": "IgE dot-blot / non-denaturing IgE binding of recombinant Amb a 1.3", "parameters": "species or system human", "details": "sera from 17 ragweed pollen allergic patients", "text": "E. coli-produced rAmb a 1.3 was purified as described above and dotted on nitrocellulose membranes.\nThus, another approach for producing recombinant reagents with full IgE-binding activity was pursued, as described in section 4. Despite its low IgE-binding activity, rAmb a 1.3 was successfully used in vitro for T cell epitope mapping and proliferation assays, as correct folding is not essential for T cell recognition (see example 2)."}, "[2]": {"tested_on": "IgE of sera from ragweed pollen allergic patients", "assay": "SDS-PAGE IgE immunoblot with patients' sera", "assay_type": "binding, human", "details": "standard procedure for SDS-PAGE/immunoblotting", "method": "Membrane strips were incubated with sera from ragweed pollen allergic patients (lanes 1-29) or with serum from a non-allergic donor (lane C). Bound IgE was detected with ^125I-labeled goat anti-human IgE. Ragweed pollen-sensitized patients were recruited in Austria (lanes 1-13) or in Italy (lanes 14-29).\nThe proteins were analyzed via SDS-PAGE using 15% acrylamide gels and 0.1% Coomassie staining with a molecular weight standard RPN 756 (GE Healthcare Life Sciences). Sera from allergic patients were tested for positive IgE-reactivity. rAmb a 1 and rArt v 6 were separated on 15% (w/w) polyacrylamide gels and electroblotted onto a PVDF membrane. After blocking the non-specific protein binding sites with Blocking buffer (per L: 7.5 g Na2HPO4, 1 g NaH2PO4, 5 g BSA and 5 mL Tween 20), the membrane was incubated with patients' sera (diluted 1:10 in Blocking buffer) for more than 6 hours at room temperature. The membrane was washed for at least 30 minutes with Blocking buffer before it was incubated with radiolabeled [^125 I]-anti human IgE (RAST, 5 µCi, MedPro) diluted in Blocking buffer (1:40) overnight at room temperature. After a second 30-minute wash, the membrane was placed onto an imaging plate. The screen was exposed for at least 24 hours and developed using a PhosphoImager Bas-1800 II scanner for detection and the instrument's supporting software (Fujifilm).\nnAmb a 1 undergoes spontaneously proteolysis during purification and it is cleaved into two chains, alpha and beta chain, respectively."}, "[3]": {"tested_on": "Amb a 1-specific TCL and TCC", "assay": "Proliferation of Amb a 1-specific TCL and TCC with allergens and chains", "assay_type": "cell-based, human", "details": "PBMC, TCL and TCC; different concentrations", "method": "Peripheral blood mononuclear cells (PBMC) were isolated from heparinized blood of allergic patients by Ficoll density gradient centrifugation. To generate allergen-specific T cell lines (TCL) and T cell clones (TCC), 1.5×10^6 PBMC were stimulated with optimal doses of ragweed or mugwort extract (4 μg/ml) or rAmb a 1.3 (10 μg/ml) in 24-well flat-bottomed culture plates (Costar, USA). After 5 days human rIL-2 (10 U/ml, Boehringer, Mannheim, Germany) were added and cultures were continued for additional 7 days. Then, T cell blasts were isolated by density centrifugation. The majority of T cell blasts was further expanded with IL-2 and irradiated PBMC. A small number of T cell blasts were used to establish monoclonal T cell cultures by limiting dilution: 0.3 T cells/well were seeded into 96 well round bottom plates (Nunclone) in the presence of 2×10^5 irradiated (60 Gy) PBMC, 0.25% v/v PHA (Gibco, USA) and rIL-2 (4 U/well) in the medium mentioned above. After 14-21 days, growing microcultures were expanded at weekly intervals with irradiated PBMC and rIL-2. The specificity of TCC was assessed in proliferation assays using irradiated allogeneic or HLA-matched PBMC or irradiated EBV-transformed allogeneic B-cells and 5 μg/ml Amb a 1.3. After 48 hours, cellular uptake of tritiated (^3H)-thymidine was performed to measure proliferation in counts per minute (cpm). When the stimulation index (SI; ratio between cpm obtained in cultures containing TCC plus autologous APC plus antigen, and cpm obtained in cultures containing TCC and APC alone) was >10, responses were considered as positive. Allergen-specific TCC were expanded by alternating turns of stimulation with autologous irradiated APC and allergen or with allogeneic feeder cells and rIL-2.\nProliferation and cytokine responses were determined.\nWhen compared with the results of the T cell epitope recognition in Table 3, 45/46 patients (98%) would recognize one or more epitopes in the Amb a 1 alpha-chain. […]"}, "[4]": {"tested_on": "Amb a 1-specific TCL and TCC", "assay": "Cytokine production in TCL and TCC (ELISA of supernatants)", "assay_type": "cell-based, human", "method": "T cells were washed and incubated with irradiated autologous APC in the presence of the stimulant (5 μg/ml) for 48 hours. Cytokine levels in the resulting supernatants were measured in ELISA using matched antibody pairs (Endogen, USA) (sensitivity limits: IL-4: 9 pg/ml, IFN-γ: 9 pg/ml). Cultures containing TCC and APC alone served as negative controls. TCC with a ratio of IFN-γ/IL-4>10 were classified as Th1, 0.1-10 as Th0 and <0.1 as Th2. […] Proliferation and cytokine responses were determined."}},
  "note": "“Also recorded” adds a separate entry of the source.",
  "data": [
    {"molecule": "rAmb a 1.3: E. coli-produced full-length recombinant Amb a 1.3 isoform (R2 clone) (protein, left off: things letters cannot carry) AEGVGEILPSVNETRSLQACEALNIIDKCWRGKADWENNRQALADCAQGFAKGTYGGKWGDVYTVTSNLDDDVANPKEGTLRFAAAQNRPLWIIFKNDMVINLNQELVVNSDKTIDGRGVKVEIINGGLTLMNVKNIIIHNINIHDVKVLPGGMIKSNDGPPILRQASDGDTINVAGSSQIWIDHCSLSKSFDGLVDVTLGSTHVTISNCKFTQQSKAILLGADDTHVQDKGMLATVAFNMFTDNVDQRMPRCRFGFFQVVNNNYDRWGTYAIGGSSAPTILCQGNRFLAPDDQIKKNVLARTGTGAAESMAWNWRSDKDLLENGAIFVTSGSDPVLTPVQSAGMIPAEPGEAAIKLTSSAGVFSCHPGAPC", "values": [
      {"measurement": "IgE reactivity in non-denaturing assays (dot blot, ELISA)", "setting": "[1]", "value": "not able to bind human IgE; also recorded: very weak or no IgE reactivity"},
      {"measurement": "reaction with patients IgE after reduction and heat treatment", "setting": "[2]", "value": "reacted with patients IgE"},
      {"measurement": "T cell proliferation compared with natural Amb a 1", "setting": "[3]", "value": "comparable T cell proliferations"},
      {"measurement": "cytokine production compared with ragweed extract (FIG. 5) or natural Amb a 1 (FIG. 6)", "setting": "[4]", "value": "comparable cytokine production"}
    ]}
  ]
}
